Biological target: T1, Mcm3 (S. cerevisiae, UniProt P24279 1-971)
T1 construct: Mcm3, S. cerevisiae; native protein without extra amino acids after SUMO cleavage; source: Champion pET SUMO Protein Expression System (Invitrogen); purified individually; protocols in Supplementary Data; not shown: SUMO, N-terminal, cleaved
Test: SEC; individually purified subunits mixed and the complex (Mcm5/3/7, Mcm2/6/4 or MCM-Cdt1) isolated by gel filtration
Details: both partners purified

T1 sequence (P24279 whole entry): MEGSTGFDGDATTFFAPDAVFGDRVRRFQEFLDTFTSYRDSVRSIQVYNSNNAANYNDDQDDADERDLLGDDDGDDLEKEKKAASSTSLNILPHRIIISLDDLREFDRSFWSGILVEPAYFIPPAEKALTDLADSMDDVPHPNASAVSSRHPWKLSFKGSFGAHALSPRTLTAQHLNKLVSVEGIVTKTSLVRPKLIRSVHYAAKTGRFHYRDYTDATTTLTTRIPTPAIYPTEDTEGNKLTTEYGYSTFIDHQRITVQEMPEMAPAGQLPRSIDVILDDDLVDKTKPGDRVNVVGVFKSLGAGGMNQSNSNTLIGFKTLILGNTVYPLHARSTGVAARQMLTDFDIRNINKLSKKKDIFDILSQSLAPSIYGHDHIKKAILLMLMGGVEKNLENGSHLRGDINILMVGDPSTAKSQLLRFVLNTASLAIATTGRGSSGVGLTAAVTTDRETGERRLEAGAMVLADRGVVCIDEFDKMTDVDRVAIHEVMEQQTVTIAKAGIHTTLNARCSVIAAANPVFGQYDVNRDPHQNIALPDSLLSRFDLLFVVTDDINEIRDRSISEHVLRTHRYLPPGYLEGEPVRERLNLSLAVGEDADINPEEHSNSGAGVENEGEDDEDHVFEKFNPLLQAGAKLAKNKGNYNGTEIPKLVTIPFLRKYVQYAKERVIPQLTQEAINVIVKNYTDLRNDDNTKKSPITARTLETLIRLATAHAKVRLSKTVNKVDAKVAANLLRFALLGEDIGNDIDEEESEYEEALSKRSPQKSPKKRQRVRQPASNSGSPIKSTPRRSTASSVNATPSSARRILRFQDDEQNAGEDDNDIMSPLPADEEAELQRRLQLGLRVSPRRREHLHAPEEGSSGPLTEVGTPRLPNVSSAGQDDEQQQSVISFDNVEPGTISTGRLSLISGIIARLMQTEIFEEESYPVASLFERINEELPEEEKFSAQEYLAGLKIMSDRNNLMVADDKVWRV

binding result: binds
B1: Mcm7 (natural protein, S. cerevisiae, UniProt P38132 1-845, looked up)
chain: MSAALPSIQLPVDYNNLFNEITDFLVTFKQDTLSSDATRNENEDENLDAENIEQHLLEKGPKYMAMLQKVANRELNSVIIDLDDILQYQNEKFLQGTQADDLVSAIQQNANHFTELFCRAIDNNMPLPTKEIDYKDDVLDVILNQRRLRNERMLSDRTNEIRSENLMDTTMDPPSSMNDALREVVEDETELFPPNLTRRYFLYFKPLSQNCARRYRKKAISSKPLSVRQIKGDFLGQLITVRGIITRVSDVKPAVEVIAYTCDQCGYEVFQEVNSRTFTPLSECTSEECSQNQTKGQLFMSTRASKFSAFQECKIQELSQQVPVGHIPRSLNIHVNGTLVRSLSPGDIVDVTGIFLPAPYTGFKALKAGLLTETYLEAQFVRQHKKKFASFSLTSDVEERVMELITSGDVYNRLAKSIAPEIYGNLDVKKALLLLLVGGVDKRVGDGMKIRGDINVCLMGDPGVAKSQLLKAICKISPRGVYTTGKGSSGVGLTAAVMKDPVTDEMILEGGALVLADNGICCIDEFDKMDESDRTAIHEVMEQQTISISKAGINTTLNARTSILAAANPLYGRYNPRLSPLDNINLPAALLSRFDILFLMLDIPSRDDDEKLAEHVTYVHMHNKQPDLDFTPVEPSKMREYIAYAKTKRPVMSEAVNDYVVQAYIRLRQDSKREMDSKFSFGQATPRTLLGIIRLSQALAKLRLADMVDIDDVEEALRLVRVSKESLYQETNKSKEDESPTTKIFTIIKKMLQETGKNTLSYENIVKTVRLRGFTMLQLSNCIQEYSYLNVWHLINEGNTLKFVDDGTMDTDQEDSLVSTPKLAPQTTASANVSAQDSDIDLQDA
notes: Mcm7, S. cerevisiae; native protein without extra amino acids after SUMO cleavage; source: Champion pET SUMO Protein Expression System (Invitrogen); purified individually; protocols in Supplementary Data; not shown: SUMO, N-terminal, cleaved
